Reference: US20160264649A1

Columns and labels:
Test in all cases: cell-based or functional assay
[1] = target: HIV-1 MGRM-G-025 Env (HIV-1)
[2] = target: HIV-1 SF162 Env on pseudovirus (HIV-1) (UniProt P19550)
[3] = target: HIV-1 MGRM-F1-016 Env (HIV-1)
[4] = target: HIV-1 MGRM-Chronic-B-024 Env on pseudovirus (HIV-1)
[5] = target: HIV-1 MGRM-F1-004 Env (HIV-1)
[6] = target: HIV-1 MGRM-D-020 Env (HIV-1)
[7] = target: HIV-1 98IN022 Env on pseudovirus (HIV-1)
[8] = target: HIV-1 MGRM-D-029 Env (HIV-1)
[9] = target: HIV-1 MGRM-C-004 Env on pseudovirus (HIV-1)
[10] = target: HIV-1 MGRM-AG-011 Env (HIV-1)
[11] = target: HIV-1 MGRM-D-011 Env (HIV-1)
[12] = target: HIV-1 MGRM-AG-005 Env (HIV-1)
[13] = target: HIV-1 MGRM-D-003 Env (HIV-1)
[14] = target: HIV-1 93MW959 Env on pseudovirus (HIV-1)
[15] = target: HIV-1 MGRM-AG-013 Env (HIV-1)
[16] = target: HIV-1 TRJ0.58 (Acute) Env on pseudovirus (HIV-1)
[17] = target: HIV-1 JRCSF Env on pseudovirus (HIV-1) (UniProt P20871)
[18] = target: HIV-1 MGRM-Chronic-B-002 Env on pseudovirus (HIV-1)
[19] = target: HIV-1 MGRM-D-004 Env (HIV-1)
[20] = target: HIV-1 MGRM-C-023 Env on pseudovirus (HIV-1)
[21] = target: HIV-1 93IN905 Env on pseudovirus (HIV-1)
[22] = target: HIV-1 MGRM-Chronic-B-020 Env on pseudovirus (HIV-1)
[23] = target: HIV-1 JRFL Env on pseudovirus (HIV-1)
[24] = target: HIV-1 QH0692.42 (Acute) Env on pseudovirus (HIV-1)
[25] = target: HIV-1 93UG077 Env (HIV-1)
[26] = target: HIV-1 MGRM-D-018 Env (HIV-1)
[27] = target: HIV-1 MGRM-AE-007 Env (HIV-1)
[28] = target: HIV-1 MGRM-D-016 Env (HIV-1)
[29] = target: HIV-1 THR0.18 (Acute) Env on pseudovirus (HIV-1)
[30] = target: HIV-1 MGRM-C-020 Env on pseudovirus (HIV-1)
[31] = target: HIV-1 MGRM-C-025 Env on pseudovirus (HIV-1)
[32] = target: HIV-1 MGRM-D-001 Env (HIV-1)
[33] = target: HIV-1 SC422661.8 (Acute) Env on pseudovirus (HIV-1)
[34] = target: HIV-1 MGRM-D-024 Env (HIV-1)
[35] = target: HIV-1 MGRM-F1-021 Env (HIV-1)
[36] = target: HIV-1 93TH305 Env on pseudovirus (HIV-1)
[37] = target: HIV-1 IAVI-C3 Env (HIV-1)
[38] = target: HIV-1 MGRM-G-011 Env (HIV-1)
[39] = target: HIV-1 MGRM-AG-012 Env (HIV-1)
[40] = target: HIV-1 92RW020 Env (HIV-1)
[41] = target: HIV-1 MGRM-AG-009 Env (HIV-1)
[42] = target: HIV-1 NL43 Env (HIV-1)
[43] = target: HIV-1 MGRM-Chronic-B-012 Env on pseudovirus (HIV-1)
[44] = target: HIV-1 MGRM-F1-006 Env (HIV-1)
[45] = target: HIV-1 92UG005 Env (HIV-1)
[46] = target: HIV-1 MGRM-G-009 Env (HIV-1)
[47] = target: HIV-1 MGRM-G-016 Env (HIV-1)
[48] = target: HIV-1 MGRM-G-014 Env (HIV-1)
[49] = target: HIV-1 MGRM-D-013 Env (HIV-1)
[50] = target: HIV-1 MGRM-F1-015 Env (HIV-1)
[51] = target: HIV-1 MGRM-Chronic-B-008 Env on pseudovirus (HIV-1)

Sequence of 1443_C16 (PG16) (TCN-116) (antibody) (VH): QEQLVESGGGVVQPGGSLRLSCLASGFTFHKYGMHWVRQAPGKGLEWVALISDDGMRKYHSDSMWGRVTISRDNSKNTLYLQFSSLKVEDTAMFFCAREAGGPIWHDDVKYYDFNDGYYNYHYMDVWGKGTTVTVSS
Sequence of 1443_C16 (PG16) (TCN-116) (antibody) (VL): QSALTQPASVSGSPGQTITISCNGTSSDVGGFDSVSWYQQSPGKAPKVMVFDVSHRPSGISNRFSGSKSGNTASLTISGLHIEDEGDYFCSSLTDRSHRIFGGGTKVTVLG

b12 (antibody)
IC50 (µg/ml), pseudovirus neutralization [1]: > 50 µg/mL
IC50 [2]: 0.02 µg/mL
IC50 (pseudovirus neutralization) [3]: > 50 µg/mL
IC50 [4]: > 50 µg/mL
IC50 (pseudovirus neutralization) [5]: > 50 µg/mL
IC50 (µg/ml), pseudovirus neutralization [6]: > 50 µg/mL
IC50 [7]: 0.42 µg/mL
IC50 (µg/ml), pseudovirus neutralization [8]: > 50 µg/mL
IC50 [9]: 5.46 µg/mL
IC50 (µg/ml), pseudovirus neutralization [10]: > 50 µg/mL
IC50 (µg/ml), pseudovirus neutralization [11]: 7.75 µg/mL
IC50 (µg/ml), pseudovirus neutralization [12]: > 50 µg/mL
IC50 (µg/ml), pseudovirus neutralization [13]: > 50 µg/mL
IC50 [14]: > 50 µg/mL
IC50 (µg/ml), pseudovirus neutralization [15]: > 50 µg/mL
IC50 [16]: > 50 µg/mL
IC50 [17]: 0.21 µg/mL
IC50 [18]: 0.86 µg/mL
IC50 (µg/ml), pseudovirus neutralization [19]: > 50 µg/mL
IC50 [20]: 13.9 µg/mL
IC50 [21]: 21.4 µg/mL
IC50 [22]: 6.16 µg/mL
IC50 [23]: 0.02 µg/mL
IC50 [24]: 0.73 µg/mL
neutralization IC50 [25]: 41.1 µg/mL
neutralization IC90 [25]: > 50 µg/mL
IC50 (µg/ml), pseudovirus neutralization [26]: 1.39 µg/mL
IC50 (µg/ml), pseudovirus neutralization [27]: > 50 µg/mL
IC50 (µg/ml), pseudovirus neutralization [28]: 1.12 µg/mL
IC50 [29]: 3.62 µg/mL
IC50 [30]: > 50 µg/mL
IC50 [31]: > 50 µg/mL
IC50 (µg/ml), pseudovirus neutralization [32]: > 50 µg/mL
IC50 [33]: 6.11 µg/mL
IC50 (µg/ml), pseudovirus neutralization [34]: 5.92 µg/mL
IC50 (pseudovirus neutralization) [35]: > 50 µg/mL
IC50 [36]: 4.17 µg/mL
neutralization IC50 [37]: 5 µg/mL
IC50 (µg/ml), pseudovirus neutralization [38]: > 50 µg/mL
IC50 (µg/ml), pseudovirus neutralization [39]: 10.4 µg/mL
neutralization IC50 [40]: > 50 µg/mL
neutralization IC90 [40]: > 50 µg/mL
IC50 (µg/ml), pseudovirus neutralization [41]: > 50 µg/mL
neutralization IC50 [42]: 0.06 µg/mL
neutralization IC90 [42]: 0.28 µg/mL
IC50 [43]: > 50 µg/mL
IC50 (pseudovirus neutralization) [44]: > 50 µg/mL
IC50 (µg/ml), pseudovirus neutralization [45]: > 50 µg/mL
neutralization IC50 [45]: > 50 µg/mL
neutralization IC90 [45]: > 50 µg/mL
IC50 (µg/ml), pseudovirus neutralization [46]: > 50 µg/mL
IC50 (µg/ml), pseudovirus neutralization [47]: > 50 µg/mL
IC50 (µg/ml), pseudovirus neutralization [48]: > 50 µg/mL
IC50 (µg/ml), pseudovirus neutralization [49]: > 50 µg/mL
IC50 (pseudovirus neutralization) [50]: > 50 µg/mL
IC50 [51]: 2.82 µg/mL

1495_C14 (PGC14) (antibody)
IC50 (µg/ml), pseudovirus neutralization [1]: > 50 µg/mL
IC50 [2]: < 0.0025 µg/mL
IC50 (pseudovirus neutralization) [3]: > 50 µg/mL
IC50 [4]: > 50 µg/mL
IC50 (pseudovirus neutralization) [5]: > 50 µg/mL
IC50 (µg/ml), pseudovirus neutralization [6]: > 50 µg/mL
IC50 [7]: 9 µg/mL
IC50 (µg/ml), pseudovirus neutralization [8]: > 50 µg/mL
IC50 [9]: > 50 µg/mL
IC50 (µg/ml), pseudovirus neutralization [10]: > 50 µg/mL
IC50 (µg/ml), pseudovirus neutralization [11]: > 50 µg/mL
IC50 (µg/ml), pseudovirus neutralization [12]: > 50 µg/mL
IC50 (µg/ml), pseudovirus neutralization [13]: > 50 µg/mL
IC50 [14]: > 50 µg/mL
IC50 (µg/ml), pseudovirus neutralization [15]: > 50 µg/mL
IC50 [16]: > 50 µg/mL
IC50 [17]: 15 µg/mL
IC50 [18]: > 50 µg/mL
IC50 (µg/ml), pseudovirus neutralization [19]: > 50 µg/mL
IC50 [20]: > 50 µg/mL
IC50 [21]: 19 µg/mL
IC50 [22]: > 50 µg/mL
IC50 [23]: > 50 µg/mL
IC50 [24]: > 50 µg/mL
neutralization IC50 [25]: > 50 µg/mL
IC50 (µg/ml), pseudovirus neutralization [26]: > 50 µg/mL
IC50 (µg/ml), pseudovirus neutralization [27]: > 50 µg/mL
IC50 (µg/ml), pseudovirus neutralization [28]: > 50 µg/mL
IC50 [29]: > 50 µg/mL
IC50 [30]: > 50 µg/mL
IC50 [31]: > 50 µg/mL
IC50 (µg/ml), pseudovirus neutralization [32]: > 50 µg/mL
IC50 [33]: > 50 µg/mL
IC50 (µg/ml), pseudovirus neutralization [34]: > 50 µg/mL
IC50 (pseudovirus neutralization) [35]: 46 µg/mL
IC50 [36]: 6 µg/mL
neutralization IC50 [37]: > 50 µg/mL
IC50 (µg/ml), pseudovirus neutralization [38]: > 50 µg/mL
IC50 (µg/ml), pseudovirus neutralization [39]: > 50 µg/mL
neutralization IC50 [40]: 28.6 µg/mL
IC50 (µg/ml), pseudovirus neutralization [41]: > 50 µg/mL
neutralization IC50 [42]: 0.373 µg/mL
IC50 [43]: > 50 µg/mL
IC50 (pseudovirus neutralization) [44]: > 50 µg/mL
IC50 (µg/ml), pseudovirus neutralization [45]: > 50 µg/mL
neutralization IC50 [45]: > 50 µg/mL
IC50 (µg/ml), pseudovirus neutralization [46]: > 50 µg/mL
IC50 (µg/ml), pseudovirus neutralization [47]: > 50 µg/mL
IC50 (µg/ml), pseudovirus neutralization [48]: > 50 µg/mL
IC50 (µg/ml), pseudovirus neutralization [49]: > 50 µg/mL
IC50 (pseudovirus neutralization) [50]: > 50 µg/mL
IC50 [51]: > 50 µg/mL

1443_C16 (PG16) (TCN-116) (antibody)
IC50 (µg/ml), pseudovirus neutralization [1]: > 50 µg/mL
IC50 [2]: > 50 µg/mL
IC50 (pseudovirus neutralization) [3]: 1.12 µg/mL
IC50 [4]: 0.01 µg/mL
IC50 (pseudovirus neutralization) [5]: 0.43 µg/mL
IC50 (µg/ml), pseudovirus neutralization [6]: 16.3 µg/mL
IC50 [7]: 0.003 µg/mL
IC50 (µg/ml), pseudovirus neutralization [8]: > 50 µg/mL
IC50 [9]: 5.09 µg/mL
IC50 (µg/ml), pseudovirus neutralization [10]: 0.002 µg/mL
IC50 (µg/ml), pseudovirus neutralization [11]: 0.01 µg/mL
IC50 (µg/ml), pseudovirus neutralization [12]: > 50 µg/mL
IC50 (µg/ml), pseudovirus neutralization [13]: 0.01 µg/mL
IC50 [14]: 0.007 µg/mL
IC50 (µg/ml), pseudovirus neutralization [15]: 0.31 µg/mL
IC50 [16]: 1.16 µg/mL
IC50 [17]: 0.001 µg/mL
IC50 [18]: 3.06 µg/mL
IC50 (µg/ml), pseudovirus neutralization [19]: 0.01 µg/mL
IC50 [20]: 0.09 µg/mL
IC50 [21]: 0.25 µg/mL
IC50 [22]: > 50 µg/mL
IC50 [23]: > 50 µg/mL
IC50 [24]: > 50 µg/mL
neutralization IC50 [25]: > 50 µg/mL
neutralization IC90 [25]: > 50 µg/mL
IC50 (µg/ml), pseudovirus neutralization [26]: 0.004 µg/mL
IC50 (µg/ml), pseudovirus neutralization [27]: 0.04 µg/mL
IC50 (µg/ml), pseudovirus neutralization [28]: 0.02 µg/mL
IC50 [29]: 1.34 µg/mL
IC50 [30]: > 50 µg/mL
IC50 [31]: 0.04 µg/mL
IC50 (µg/ml), pseudovirus neutralization [32]: > 50 µg/mL
IC50 [33]: 1.13 µg/mL
IC50 (µg/ml), pseudovirus neutralization [34]: 0.02 µg/mL
IC50 (pseudovirus neutralization) [35]: > 50 µg/mL
IC50 [36]: 19.3 µg/mL
neutralization IC50 [37]: 14.8 µg/mL
neutralization IC90 [37]: > 50 µg/mL
IC50 (µg/ml), pseudovirus neutralization [38]: 0.04 µg/mL
IC50 (µg/ml), pseudovirus neutralization [39]: 25.1 µg/mL
IC50, TZM-bl pseudovirus neutralization [40]: 0.09 µg/mL
neutralization IC50 [40]: 0.004 µg/mL
neutralization IC90 [40]: > 50 µg/mL
IC50 (µg/ml), pseudovirus neutralization [41]: > 50 µg/mL
neutralization IC50 [42]: < 0.0025 µg/mL
neutralization IC90 [42]: > 50 µg/mL
IC50 [43]: 3.74 µg/mL
IC50 (pseudovirus neutralization) [44]: 0.27 µg/mL
IC50 (µg/ml), pseudovirus neutralization [45]: > 50 µg/mL
neutralization IC50 [45]: > 50 µg/mL
neutralization IC90 [45]: > 50 µg/mL
IC50 (µg/ml), pseudovirus neutralization [46]: > 50 µg/mL
IC50 (µg/ml), pseudovirus neutralization [47]: 11.3 µg/mL
IC50 (µg/ml), pseudovirus neutralization [48]: 6.98 µg/mL
IC50 (µg/ml), pseudovirus neutralization [49]: 0.11 µg/mL
IC50 (pseudovirus neutralization) [50]: > 50 µg/mL
IC50 [51]: 0.73 µg/mL
